Test results: the nanobody polyreactivity screen of Harvey et al. (2022)

Test: yeast display, Sf9 membrane polyspecificity reagent, FACS + sequencing; frameworks hold sequencing errors
Procedure, shortened: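 Nanobodies came from a synthetic yeast display library in Saccharomyces cerevisiae BJ5465, induced with galactose for 36–48 hours and stained for 1 hour at 4 °C with 10% biotinylated, detergent-solubilized Sf9 membrane reagent. Cells were enriched on streptavidin microbeads and then FACS-sorted, with low and high (top ~1%) gates set on anti-HA fluorescence for expression and streptavidin fluorescence for reagent binding. Each polyreactivity label reflects the gate a clone came from. Genes were amplified by colony PCR, sequenced by MiSeq 2 × 250 and filtered by CDR length.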

| Sequence | polyreactivity (PSR sort gate) |
| --- | --- |
| QVQLVESGGGLVQAGGSLRLSCAASGLTFNYYAMGWYRQAPGKERELVAAITSSGGRTYYADSVKGRFTISRDNAKNTFYLQMNSLKPEDTAVYYCNTVSYRQGAVWFRYDYWGQGTQVTVSS | high polyreactivity |
| QVQLVESGGGLVQAGGSLRLSCAASGLTFNYYAMGWYRQAPGKERELVASISKRGGTYYADSVKGRFTLSRDNAKNTVYLQMNSLKPEDTAVYYCAADYWFRRNEYDYWGQGTQVTVSS | high polyreactivity |
| QVQLVESGGGLVQAGGSLRLSCAASGLTFPDYAMGWYRQAPGKERELVAAITIDGSTYYADSVKGRFTISRDNAKNTVYLQMNSLTPEDTAVYYCNAQVGVPYAMYYWGQGTQVTVSS | low polyreactivity |
| QVQLVESGGGLVQAGGSLRLSCAASGLTFPFYTMGWYRQAPGKERELVAAISRRGGSTYYADSVKGRFTISRDNAKNTVYLQLNSLKPEDTAVYYCAADKYSWYDYWGQGTQVTVSS | low polyreactivity |
| QVQLVESGGGLVQAGGSLRLSCAASGLTFPHNAMGWYRQAPGKERELVAAITSSGCSTYYADSVKGRFTISRDNAMNSVYLQMNSLKPEDTAVYYCAKRDGTDRLDDYWGQGTQVTVSS | high polyreactivity |
| QVQLVESGGGLVQAGGSLRLSCAASGLTFPHYAMGWYRQAPGKERELVAAISSGGSTHYADSVKGRFTISRDNAKNTVYLQMNSLKPEDTAVYYCAARRHGRRTVQGKFDFWGQGTQVTVSS | high polyreactivity |
| QVQLVESGGGLVQAGGSLRLSCAASGLTFPIYAMGWYRQAPGKEREFVAVITTSGGSTYYSDSVKGRFTISRDNAKNTVYLQMNSLKPEDTAVYYCNARRIRHYYWGQGTQVTVSS | high polyreactivity |
| QVQLVESGGGLVQAGGSLRLSCAASGLTFPLYAMGWYRPAPGKEREFVAAITVSGVSTSYADSVKGRFTISRDNAKNTVYLQMNSLKPEDTAVYYCAADYYIWTYWDVYYWGQGTQVTVSS | high polyreactivity |
| QVQLVESGGGLVQAGGSLRLSCAASGLTFPLYAMGWYRQAPGKEREFVAAITVSGVSTSYADSVKGRFTISRDNAKNTVYLQMNSLKPEDTAVYYCAADYYIWTYWDVYYWGQGTQVTVSS | high polyreactivity |
| QVQLVESGGGLVQAGGSLRLSCAASGLTFPQYAMGWYRQAPGKERELVAAISKTGGSTYYADSVKGRFTISRDNAKNTVYLQMNSLKPEDTAVYYCAAVESGDRGQRNNYWGQGTQVTVSS | high polyreactivity |
| QVQLVESGGGLVQAGGSLRLSCAASGLTFPTNAMGRYRQAHGKESQFVAAITSRGGTTYYADSVTGRFPISRDNAKNTVYLQMNSLKPEDTAVYYCAALSVTIDQSYRYGYWGQGTQVTVSS | low polyreactivity |
| QVQLVESGGGLVQAGGSLRLSCAASGLTFPYYDMGWYRQAPGKERELVATITISGRTNYADSVKGRFTISRDNAKNTVYLQMNSLKPEDTAVYYCNARYRGRVYDRFGYWGQGTQVTVSS | high polyreactivity |
| QVQLVESGGGLVQAGGSLRLSCAASGLTFQLYAMGWYRQAPGKERELVAAISGSGGRTYYADSVKGRFTISRDNGKNTVYLLMNRLKPEDTAVYYCAARPGSGRSYTSDYWGQGTQVTVSS | high polyreactivity |
| QVQLVESGGGLVQAGGSLRLSCAASGLTFQNNAMGWYRQAPGKERELVAAISDGGSTNYADSVKGRFTISRDNAKNTVYLQMNSLKPEDTAVYYCAAVYTSASYGSWGQGTQVTVSS | low polyreactivity |
| QVQLVESGGGLVQAGGSLRLSCAASGLTFQSYAMGWYRQAPGKERELVAAISRRSGSTYYADSVKGRFTISRDNAKNTVYLQMNSLKPEDTAVYYCTTRRGERGYWGQGTQVTVSS | high polyreactivity |
| QVQLVESGGGLVQAGGSLRLSCAASGLTFQYKTMGRYRQAPGKEREFVAAITISGGTTYYADSVKGRFTISRDNAKTTVYLQMNSLKPEDTAVHYCAADFNSTERGTNMDYWGQGTQVTVSS | low polyreactivity |
| QVQLVESGGGLVQAGGSLRLSCAASGLTFQYYAMGWYRQAPGKDRELVAAISTSGGSTYYADSVKGRFTISRDYAKNTVYLQMNSLKPEDTAVYYCAARRGSQYWGQGTQVTVSS | high polyreactivity |
